This passage reports IC50 of neutralisation of wild type HIV-1 MN.3 virus, TZM-bl reporter cells and IC50 of neutralisation of HIV-1 MN.3 N332A pseudovirus, TZM-bl reporter cells results from article PMC6599478.

Assay [1] concerns the target HIV-1 clade B Tier 1A chronic virus MN.3 gp120 Env (HIV-1 (clade B, MN.3)) (UniProt P05877).
The target of assay [2] is HIV-1 MN.3 Env with the glycan mutation N332A, on pseudovirus (HIV-1 (clade B, MN.3)) (UniProt P05877).

“recombinant full length Tenascin-C, large isoform (TNC-L) (from UniProt P24821 23-2201) (natural protein)” gave an IC50 of neutralisation of wild type HIV-1 MN.3 virus, TZM-bl reporter cells in assay [1] of 31 µg/mL. In turn, “recombinant full length Tenascin-C, large isoform (TNC-L), P24821 23-2201” gave an IC50 of neutralisation of HIV-1 MN.3 N332A pseudovirus, TZM-bl reporter cells in assay [2] of 113 µg/mL.
